Source: paper PMC5887309

Target: DNMT3AC R882H (human, UniProt Q9Y6K1 612-912, R882H)
Test: fluorescence anisotropy

Sequence of DNMT3AC R882H (Q9Y6K1 612-912 R882H): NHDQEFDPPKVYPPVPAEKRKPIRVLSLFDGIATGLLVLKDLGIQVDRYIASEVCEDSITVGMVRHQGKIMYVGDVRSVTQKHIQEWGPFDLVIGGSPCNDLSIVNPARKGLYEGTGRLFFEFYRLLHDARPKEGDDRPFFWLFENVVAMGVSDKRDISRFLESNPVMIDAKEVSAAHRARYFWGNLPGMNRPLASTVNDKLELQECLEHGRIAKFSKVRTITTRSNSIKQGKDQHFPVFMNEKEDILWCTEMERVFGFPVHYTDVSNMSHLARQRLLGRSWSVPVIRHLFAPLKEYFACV

B1: Cy5-labeled 29mer with two CpG sites (dsDNA)
DNA 1: ACTTGCAACGGTCCTAACCGTCACCTCTT
DNA 2: AAGAGGTGACGGTTAGGACCGTTGCAAGT
Kd: 209 ± 19 nM
